Values quoted from earlier work as cited in PMC12869367.

Biological target: DMBT1S8L (Homo sapiens) (UniProt Q9UGM3)
Sequence of UniProt Q9UGM3 (Q9UGM3 20-2413): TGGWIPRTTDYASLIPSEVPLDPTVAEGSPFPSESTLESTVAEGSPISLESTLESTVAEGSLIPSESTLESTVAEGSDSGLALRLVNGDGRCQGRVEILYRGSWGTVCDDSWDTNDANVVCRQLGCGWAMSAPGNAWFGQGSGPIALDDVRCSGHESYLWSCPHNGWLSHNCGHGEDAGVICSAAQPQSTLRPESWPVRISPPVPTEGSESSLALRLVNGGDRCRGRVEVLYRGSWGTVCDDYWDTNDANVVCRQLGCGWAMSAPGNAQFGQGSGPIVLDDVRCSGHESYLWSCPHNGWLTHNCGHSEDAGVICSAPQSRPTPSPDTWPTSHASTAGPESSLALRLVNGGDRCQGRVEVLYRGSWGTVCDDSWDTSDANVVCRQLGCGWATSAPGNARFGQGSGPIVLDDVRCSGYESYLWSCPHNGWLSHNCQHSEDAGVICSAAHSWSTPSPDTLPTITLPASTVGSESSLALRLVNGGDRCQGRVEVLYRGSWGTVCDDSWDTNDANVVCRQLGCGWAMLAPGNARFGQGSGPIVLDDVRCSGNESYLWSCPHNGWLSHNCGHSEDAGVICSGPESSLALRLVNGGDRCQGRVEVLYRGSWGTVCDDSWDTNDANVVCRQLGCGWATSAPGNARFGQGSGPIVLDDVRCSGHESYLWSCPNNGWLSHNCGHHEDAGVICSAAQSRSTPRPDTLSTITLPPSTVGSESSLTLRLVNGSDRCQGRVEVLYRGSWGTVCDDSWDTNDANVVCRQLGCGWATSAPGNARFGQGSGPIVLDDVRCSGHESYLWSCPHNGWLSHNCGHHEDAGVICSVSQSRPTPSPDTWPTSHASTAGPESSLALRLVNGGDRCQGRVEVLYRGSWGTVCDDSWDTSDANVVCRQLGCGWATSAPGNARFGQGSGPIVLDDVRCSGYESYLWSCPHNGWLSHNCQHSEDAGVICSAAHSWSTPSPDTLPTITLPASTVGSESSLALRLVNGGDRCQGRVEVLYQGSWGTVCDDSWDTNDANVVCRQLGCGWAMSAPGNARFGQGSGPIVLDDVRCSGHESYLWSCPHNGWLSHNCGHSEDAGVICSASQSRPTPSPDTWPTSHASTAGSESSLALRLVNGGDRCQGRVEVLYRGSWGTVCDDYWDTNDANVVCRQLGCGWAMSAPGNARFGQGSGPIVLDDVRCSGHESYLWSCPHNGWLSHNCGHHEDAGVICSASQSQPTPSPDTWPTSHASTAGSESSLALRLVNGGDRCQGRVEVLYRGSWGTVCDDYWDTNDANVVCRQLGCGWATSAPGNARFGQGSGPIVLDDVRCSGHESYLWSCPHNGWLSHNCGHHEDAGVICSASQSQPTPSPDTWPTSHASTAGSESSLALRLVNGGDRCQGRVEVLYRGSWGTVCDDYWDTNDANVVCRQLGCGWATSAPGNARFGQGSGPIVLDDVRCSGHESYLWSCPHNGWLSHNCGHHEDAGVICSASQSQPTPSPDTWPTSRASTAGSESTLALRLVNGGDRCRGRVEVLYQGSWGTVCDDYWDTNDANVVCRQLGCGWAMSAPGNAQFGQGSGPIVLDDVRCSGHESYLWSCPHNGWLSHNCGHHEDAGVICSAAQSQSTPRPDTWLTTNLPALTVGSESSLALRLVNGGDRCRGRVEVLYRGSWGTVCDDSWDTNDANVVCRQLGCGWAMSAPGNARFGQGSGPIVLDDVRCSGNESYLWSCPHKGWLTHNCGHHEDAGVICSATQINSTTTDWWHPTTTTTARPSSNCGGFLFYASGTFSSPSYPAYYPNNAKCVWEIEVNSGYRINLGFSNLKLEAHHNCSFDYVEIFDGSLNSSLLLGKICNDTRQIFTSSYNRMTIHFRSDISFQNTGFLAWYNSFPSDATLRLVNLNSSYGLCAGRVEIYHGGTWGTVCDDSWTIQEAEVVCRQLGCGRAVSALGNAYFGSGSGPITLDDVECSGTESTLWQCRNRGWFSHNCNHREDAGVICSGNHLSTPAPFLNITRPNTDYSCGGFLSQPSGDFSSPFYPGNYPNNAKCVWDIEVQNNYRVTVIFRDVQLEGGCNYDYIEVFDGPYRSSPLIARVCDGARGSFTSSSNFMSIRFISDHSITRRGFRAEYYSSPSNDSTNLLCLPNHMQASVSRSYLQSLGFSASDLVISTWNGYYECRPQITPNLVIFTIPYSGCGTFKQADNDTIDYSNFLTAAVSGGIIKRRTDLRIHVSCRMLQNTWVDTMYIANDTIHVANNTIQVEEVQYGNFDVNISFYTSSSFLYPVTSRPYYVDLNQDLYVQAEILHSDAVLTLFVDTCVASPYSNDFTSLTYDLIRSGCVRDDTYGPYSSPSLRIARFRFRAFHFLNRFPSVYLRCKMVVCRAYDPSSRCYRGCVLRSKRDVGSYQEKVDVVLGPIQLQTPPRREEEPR

Siglec-8-Fc (from UniProt Q9NYZ4)
Kd: 0.06 nM
